B1: GCNF: Germ Cell Nuclear Factor (NR6A1, GCNF1), cDNA driver (protein, UniProt Q15406 1-480, looked up)
Nuclear receptor subfamily 6 …: MERDEPPPSGGGGGGGSAGFLEPPAALPPPPRNGFCQDELAELDPGTISVSDDRAEQRTCLICGDRATGLHYGIISCEGCKGFFKRSICNKRVYRCSRDKNCVMSRKQRNRCQYCRLLKCLQMGMNRKAIREDGMPGGRNKSIGPVQISEEEIERIMSGQEFEEEANHWSNHGDSDHSSPGNRASESNQPSPGSTLSSSRSVELNGFMAFREQYMGMSVPPHYQYIPHLFSYSGHSPLLPQQARSLDPQSYSLIHQLLSAEDLEPLGTPMLIEDGYAVTQAELFALLCRLADELLFRQIAWIKKLPFFCELSIKDYTCLLSSTWQELILLSSLTVYSKQIFGELADVTAKYSPSDEELHRFSDEGMEVIERLIYLYHKFHQLKVSNEEYACMKAINFLNQDIRGLTSASQLEQLNKRYWYICQDFTEYKYTHQPNRFPDLMMCLPEIRYIAGKMVNVPLEQLPLLFKVVLHSCKTSVGKE
B2: DAX-1: DAX1 (NR0B1), cDNA driver (protein, UniProt P51843 1-470, looked up)
Nuclear receptor subfamily 0 …: MAGENHQWQGSILYNMLMSAKQTRAAPEAPETRLVDQCWGCSCGDEPGVGREGLLGGRNVALLYRCCFCGKDHPRQGSILYSMLTSAKQTYAAPKAPEATLGPCWGCSCGSDPGVGRAGLPGGRPVALLYRCCFCGEDHPRQGSILYSLLTSSKQTHVAPAAPEARPGGAWWDRSYFAQRPGGKEALPGGRATALLYRCCFCGEDHPQQGSTLYCVPTSTNQAQAAPEERPRAPWWDTSSGALRPVALKSPQVVCEAASAGLLKTLRFVKYLPCFQVLPLDQQLVLVRNCWASLLMLELAQDRLQFETVEVSEPSMLQKILTTRRRETGGNEPLPVPTLQHHLAPPAEARKVPSASQVQAIKCFLSKCWSLNISTKEYAYLKGTVLFNPDVPGLQCVKYIQGLQWGTQQILSEHTRMTHQGPHDRFIELNSTLFLLRFINANVIAELFFRPIIGTVSMDDMMLEMLCTKI
B3: SHP: Small Heterodimer Partner (NR0B2), cDNA driver (protein, UniProt Q15466 1-257, looked up)
Nuclear receptor subfamily 0 …: MSTSQPGACPCQGAASRPAILYALLSSSLKAVPRPRSRCLCRQHRPVQLCAPHRTCREALDVLAKTVAFLRNLPSFWQLPPQDQRRLLQGCWGPLFLLGLAQDAVTFEVAEAPVPSILKKILLEEPSSSGGSGQLPDRPQPSLAAVQWLQCCLESFWSLELSPKEYACLKGTILFNPDVPGLQAASHIGHLQQEAHWVLCEVLEPWCPAAQGRLTRVLLTASTLKSIPTSLLGDLFFRPIIGDVDIAGLLGDMLLLR

Key:
[1] = test system: mGhrelin promoter; experiment: NHR-promoter luciferase screen, mGhrelin promoter; type: cell-based, mouse; settings: for Luc. act., normalized to lacZ / Normalized Luc. act., normalized to control: Table 8, mGhrelin; for Results of assays of transcription factor (+/- ligand) with mGhrelin: Table 6d, luciferase activity relative to control (control = 1.00)
In short: (§1)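 CV-1 cells were co-transfected with 50 ng NHR (homodimer or NHR/RXR heterodimer), 100 ng promoter-luciferase construct and 50 ng LacZ. Luciferase was normalized to LacZ and to a no-NHR/no-ligand control.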

[2] = test system: mDio1 promoter; experiment: NHR-promoter luciferase screen, mDio1 promoter; type: cell-based, mouse; settings: for Luc. act., normalized to lacZ / Normalized Luc. act., normalized to control: Dio1, HR component without or with its ligand; for mDio1 promoter reporter activity: transcription factor +/- ligand, control = 1.00
In short: as §1

[3] = test system: SREBP1c promoter; experiment: NHR-promoter luciferase screen, SREBP1c promoter; type: cell-based, mouse; settings: for Luc. act., normalized to lacZ / Normalized Luc. act., normalized to control: SREBP1c promoter, HR component without or with ligand; for mSREBP1-c promoter reporter activity: transcription factor +/- ligand, control = 1.00
In short: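 CV-1 cells co-transfected with 50 ng NHR (homodimer or NHR/RXR heterodimer), 100 ng promoter-luciferase and 50 ng LacZ. Luciferase read at 48 h, normalised to LacZ and to a no-NHR/no-ligand control.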

[4] = test system: FGF1A promoter; experiment: FGF family promoter luciferase reporter screen by NHRs, FGF1A; type: cell-based, human; settings: FIG. 43, in words
Description: (§2) Screening for FGF regulation by NHRs. The methods described herein provide a straightforward, high throughput, sensitive and quantitative strategy to identify therapeutic agonists and antagonists that can predictably modulate FGF and FGFR expression for therapeutic benefit. Promoter constructs were designed and screened for all 22 members of the FGF-family for novel regulation by the NHRs. Of particular interest is the strong and specific transcriptional regulation of FGF1A, one of the alternative splice variants of FGF1, by PPARγ (FIG. 43). The FGF 1 gene is regulated by at least three (A, B and D) different promoters. Alternative splicing of these promoters to the three exons of the FGF1 gene results in identical but differentially expressed FGF1 polypeptides (FIG. 44). FGF1A is highly expressed in heart, kidney and adipose, FGF1B is highly expressed in brain and FGF1D is highly expressed in liver.
FGF1A promoter analysis. To gain more insight into the regulation of the FGF1A promoter by PPARγ, the putative PPRE was localized. […] The evolutionary conservation of FGF1A was determined and found to be highly conserved in a wide range of mammals (bovine, canine, horse, chimpanzee, human, orangutan, rat, mouse, and opossum). […] In addition to a strong conservation of the PPRE in this promoter, several other highly conserved elements were detected (e.g. SP1, HMTB, EVI1 and E-box).

[5] = test system: FGF1D promoter; experiment: FGF family promoter luciferase reporter screen by NHRs, FGF1D; type: cell-based, human; settings: FIG. 43, in words
Description: as §2

Row | Molecule | Luc. act., normalized to lacZ [1] | Normalized Luc. act., normalized to control [1] | Results of assays of transcription factor (+/- ligand) with mGhrelin [1] | luciferase/LacZ, mGhrelin (selected results) ([1]; mGhrelin promoter-luciferase, NHR +/- ligand, control = 1.0) | Luc. act., normalized to lacZ [2] | Normalized Luc. act., normalized to control [2] | mDio1 promoter reporter activity [2] | Luc. act., normalized to lacZ [3] | Normalized Luc. act., normalized to control [3] | mSREBP1-c promoter reporter activity [3] | activation of FGF1A promoter, luciferase reporter assay [4] | activation of FGF1D promoter, luciferase reporter assay [5] | regulation of the SREBP1c promoter ([3]; FIG. 2b, in words)
1 | PPARg: Peroxisome proliferator activated receptor γ (NR1C3), cDNA driver | 93.9 | 1.8 | 1.80 | 1.8 | 9.9 | 2.2 | 2.23 | 795.8 | 2.5 | 2.47 | strong activation | moderate activation | 
2 | LXRa: Liver X Receptor α (NR1H3), cDNA driver | 56.7 | 1.1 | 1.08 |  | 4.7 | 1.1 | 1.06 | 5951.9 | 18.5 | 18.48 |  | moderate activation | specific and strong activation
3 | B1 | 50.7 | 1.0 | 0.97 |  | 5.1 | 1.1 | 1.13 | 368.2 | 1.1 | 1.14 |  |  | 
4 | B2 | 63.3 | 1.2 | 1.21 |  | 8.9 | 2.0 | 2.00 | 497.8 | 1.5 | 1.55 |  |  | 
5 | B3 | 56.5 | 1.1 | 1.08 |  | 4.8 | 1.1 | 1.07 | 350.6 | 1.1 | 1.09 |  |  | 
